T1: human MCAM expressed on CHO cells (full length human MCAM gene) (human, UniProt P43121 24-646)
T1 construct: also called hMCAM expressing CHO cells; CD146
T1 chain: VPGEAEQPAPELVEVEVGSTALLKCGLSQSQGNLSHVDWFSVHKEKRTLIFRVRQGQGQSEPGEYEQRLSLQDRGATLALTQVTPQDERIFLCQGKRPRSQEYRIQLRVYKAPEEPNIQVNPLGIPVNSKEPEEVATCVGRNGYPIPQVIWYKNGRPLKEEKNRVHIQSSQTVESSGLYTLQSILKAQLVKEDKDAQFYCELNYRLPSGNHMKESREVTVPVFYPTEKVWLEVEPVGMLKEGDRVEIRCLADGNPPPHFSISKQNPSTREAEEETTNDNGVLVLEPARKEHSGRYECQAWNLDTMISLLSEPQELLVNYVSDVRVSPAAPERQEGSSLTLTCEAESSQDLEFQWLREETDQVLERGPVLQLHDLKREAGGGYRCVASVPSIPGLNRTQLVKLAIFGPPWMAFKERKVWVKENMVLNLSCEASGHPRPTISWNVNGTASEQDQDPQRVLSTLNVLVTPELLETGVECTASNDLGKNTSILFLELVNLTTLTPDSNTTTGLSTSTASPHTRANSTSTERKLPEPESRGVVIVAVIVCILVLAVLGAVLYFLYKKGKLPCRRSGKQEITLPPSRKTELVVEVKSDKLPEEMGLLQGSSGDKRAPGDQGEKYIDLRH

T2: human MCAM domain 1 hFc construct (human, UniProt P43121 19-129)
T2 construct: One of the 'various MCAMhFc domains' loaded on the ForteBio sensors; also called MCAMhFc domain 1
T2 sequence: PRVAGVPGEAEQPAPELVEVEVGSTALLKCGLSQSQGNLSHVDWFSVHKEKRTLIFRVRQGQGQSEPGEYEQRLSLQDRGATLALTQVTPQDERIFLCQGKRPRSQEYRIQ

T3: human MCAM-Fc protein (extracellular domain of human MCAM fused to human IgG) (human, UniProt P43121 24-559)
T3 construct: also called hMCAM-Fc; MCAMhFc
T3 chain: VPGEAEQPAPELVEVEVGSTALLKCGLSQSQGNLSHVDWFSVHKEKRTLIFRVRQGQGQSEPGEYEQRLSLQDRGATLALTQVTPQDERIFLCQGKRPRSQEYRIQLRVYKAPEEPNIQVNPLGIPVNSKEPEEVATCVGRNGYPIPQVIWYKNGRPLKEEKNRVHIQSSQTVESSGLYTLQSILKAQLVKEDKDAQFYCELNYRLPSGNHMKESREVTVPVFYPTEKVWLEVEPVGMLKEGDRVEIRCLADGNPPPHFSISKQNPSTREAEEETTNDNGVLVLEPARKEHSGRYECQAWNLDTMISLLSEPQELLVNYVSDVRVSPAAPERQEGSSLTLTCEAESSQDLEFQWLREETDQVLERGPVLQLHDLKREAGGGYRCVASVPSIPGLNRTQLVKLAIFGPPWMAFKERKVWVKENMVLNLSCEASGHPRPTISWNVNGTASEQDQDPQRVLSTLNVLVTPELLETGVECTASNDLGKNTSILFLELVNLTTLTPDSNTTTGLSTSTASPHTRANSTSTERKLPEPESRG

T4: human MCAM domain 3 hFc construct (human, UniProt P43121 244-321)
T4 construct: One of the 'various MCAMhFc domains' loaded on the ForteBio sensors; also called MCAMhFc domain 3
T4 sequence: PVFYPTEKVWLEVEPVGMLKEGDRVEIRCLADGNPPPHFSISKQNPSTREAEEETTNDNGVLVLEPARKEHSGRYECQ

T5: human MCAM domain 2 hFc construct (human, UniProt P43121 139-242)
T5 construct: One of the 'various MCAMhFc domains' loaded on the ForteBio sensors; also called MCAMhFc domain 2
T5 sequence: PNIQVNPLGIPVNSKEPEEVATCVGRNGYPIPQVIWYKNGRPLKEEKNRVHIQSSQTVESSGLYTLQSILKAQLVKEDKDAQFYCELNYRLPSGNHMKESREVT

T6: human MCAM domains 1 and 2 hFc construct (human, UniProt P43121 19-242)
T6 construct: One of the 'various MCAMhFc domains' loaded on the ForteBio sensors
T6 sequence: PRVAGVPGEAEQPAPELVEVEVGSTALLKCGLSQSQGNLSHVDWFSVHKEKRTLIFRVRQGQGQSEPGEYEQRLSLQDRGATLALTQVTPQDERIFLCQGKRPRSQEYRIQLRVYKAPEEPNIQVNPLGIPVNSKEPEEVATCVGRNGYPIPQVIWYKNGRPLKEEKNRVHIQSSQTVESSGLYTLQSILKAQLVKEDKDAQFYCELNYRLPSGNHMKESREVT

T7: recombinant hMCAM-His (human, UniProt P43121 24-559)
T7 chain: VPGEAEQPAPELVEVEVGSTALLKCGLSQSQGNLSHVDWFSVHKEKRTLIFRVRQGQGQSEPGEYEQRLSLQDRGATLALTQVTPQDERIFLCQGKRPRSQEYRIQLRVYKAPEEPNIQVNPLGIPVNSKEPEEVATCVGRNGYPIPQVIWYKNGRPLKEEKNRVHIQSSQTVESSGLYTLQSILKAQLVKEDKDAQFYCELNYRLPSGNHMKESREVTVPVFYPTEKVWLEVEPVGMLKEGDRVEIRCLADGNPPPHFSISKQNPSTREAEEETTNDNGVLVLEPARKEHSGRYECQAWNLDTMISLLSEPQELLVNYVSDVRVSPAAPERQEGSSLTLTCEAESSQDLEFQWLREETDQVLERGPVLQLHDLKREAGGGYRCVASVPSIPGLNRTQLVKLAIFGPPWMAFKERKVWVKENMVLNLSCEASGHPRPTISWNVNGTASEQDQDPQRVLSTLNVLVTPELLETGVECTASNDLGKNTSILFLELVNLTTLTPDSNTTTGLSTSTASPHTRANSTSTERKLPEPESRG

B1: rat anti-human MCAM monoclonal antibody clone 2107.4.10 (antibody, V domains shown)
VH: QVQLKESGPGLVQSSQTLSLTCTVSGFSLTSNGVSWVRQPPGKGLEWIAAISSGGSTYYNSAFKSRLSISRNTSKSQVLLKMNSLQTEDTGMYFCARHRPFYFDYWGQGVMVTVSS
VL: DIQVTQSPSLLSASVGDRVTLNCKGSQNIYKSLAWFRLKRGEAPKLLIYDANSLQTGIPSRFSGSGSGTDFTLTITSLQPEDVATYFCQQYYSGYTFGAGTKLELK
notes: Rat hybridoma antibody
B2: mouse anti-human MCAM monoclonal antibody clone 1174.1.3 (antibody, V domains shown)
VH: QIQLVQSGPELKKPGETVKISCKASGYTFTNYGMNWVKQAPGKGLKWMGWINTYTGEPTYADDFKGRFALSLETSASTAYLQINNLKNEDMATYFCARYRYNKYERAMDYWGQGTSVTVSS
VL: DIVLTQSPASLAVSLGQRATISCRASKSVSTSGYSYMYWYQQKPGQPPKLLIYLASNLESGVPARFSGSGSGTDFTLNIHPVEEEDAATYYCQHSRELPFTFGSGTKLEIK
notes: Mouse hybridoma antibody
B3: humanized anti-MCAM antibody h2120_VH1 + h2120_VL1 (antibody, V domains shown)
VH: QVTLKESGPVLVKPTETLTLTCTVSGFSLTSNGVSWVRQPPGKALEWIAAISSGGTTYYNSAFKSRLTISRDTSKSQVVLTMTNMDPVDTATYYCARRYGYGWYFDFWGQGTLVTVSS
VL: DIQMTQSPSSLSASVGDRVTITCKASQNIYNSLAWYQQKPGKAPKVLIFNANSLQTGIPSRFSGSGSGTDFTLTISSLQPEDFATYYCQQFYSGYTFGQGTKLEIK
notes: Human IgG1 / human kappa; also called h2120VH1VL1; Standard VH + standard VL
B4: humanized anti-MCAM antibody h2120_VH4 + h2120_VL3 (antibody, V domains shown)
VH: QVTLKESGPVLVKPTETLTLTCTVSGFSLTSQGVSWVRQPPGKALEWIAAISSGGTTYYNSAFKSRLTISRDTSKSQVVLTMTNMDPVDTATYYCARRYGYGWYFDFWGQGTLVTVSS
VL: DIQMTQSPSSLSASVGDRVTINCKASQNIYNSLAWYQQKPGKAPKVLIFNANSLQTGIPSRFSGSGSGTDFTLTISSLQPEDFATYYCQQFYSGYTFGQGTKLEIK
notes: Human IgG1 / human kappa; also called h2120VH4VL3; N-Q deamidate VH + conservative VL
B5: humanized anti-MCAM antibody h2120_VH1 + h2120_VL2 (antibody, V domains shown)
VH: QVTLKESGPVLVKPTETLTLTCTVSGFSLTSNGVSWVRQPPGKALEWIAAISSGGTTYYNSAFKSRLTISRDTSKSQVVLTMTNMDPVDTATYYCARRYGYGWYFDFWGQGTLVTVSS
VL: DIQMTQSPSSLSASVGDRVTITCKASQNIYNSLAWYQQKPGKAPKVLIFNANSLQTGVPSRFSGSGSGTDFTLTISSLQPEDFATYYCQQFYSGYTFGQGTKLEIK
notes: Human IgG1 / human kappa; also called h2120VH1VL2; Standard VH + aggressive VL

Assays:
[1] = target: T1, human MCAM expressed on CHO cells (full …); experiment: flow cytometry: blocking of recombinant human laminin 411 (20 ug/ml) binding to CHO cells expressing human MCAM
Experimental: The 87 independent mouse fusion clones and 26 independent rat fusion clones described in Example 1 above as being capable of (i) binding to human MCAM, and (ii) blocking the interaction between human MCAM and the α-4 chain of laminin were further characterized as follows. First, IC50 quantitation for the ability of the monoclonal antibody to block the binding of human MCAM to the α-4 chain of laminin was determined as follows. CHO cells expressing human MCAM were incubated with an anti-human MCAM antibody (at various concentrations) for 30 minutes at 4 degrees Celsius. […] Unbound laminin was then washed away, and the laminin bound to the surface of the cells was detected with fluorescently labeled anti-laminin antibodies. After washing, the amount of laminin bound to the surface was detected by flow cytometry, and IC50s were calculated based on the mean fluorescent intensity.
Amino acid and nucleic acid sequences of the heavy and light chains of these antibodies, and their hypervariable regions, are provided in SEQ ID NOs:29-92. […] As such, each of these specific monoclonal antibodies was very capable of binding to human MCAM and inhibiting the interaction of cell-expressed human MCAM with its α-4 laminin binding ligand.

[2] = target: T2, human MCAM domain 1 hFc construct; experiment: ForteBio Octet Red, MCAMhFc domains on anti-human IgG Fc sensors
Source text: (§1) The following protocol was used: ForteBio anti-human IgG Fc biosensors were used to immobilize various MCAMhFc domains including full length MCAMhFc protein on to biosensor surface. […] After loading these samples into a black 96 well plate, the Octet Red was programmed as follows: 60 seconds for baseline #1; 180 seconds for loading various domains; 60 seconds for baseline #2; 180 seconds for association of antibody to domain; and 240 seconds for dissociation of antibody from domain.
(§2) Reagents and Supplies Used: [0358] 1. MCAMhFc final concentration @ 5 ug/ml [0359] […] 3. ForteBio anti-human IgG Fc Capture (AHC) biosensors for kinetics experiments, cat#18-5060 [0361] 4. Block 96 well plate from Greiner Bio-one, cat#655209 [0362] 5. ForteBio Octet Red machine [0363] 6. Fresh tissue culture medium, DMEM with 20% FCS, was used as buffer for dilution

[3] = target: T3, human MCAM-Fc protein (extracellular …); experiment: summary sentence of Example 3 (ForteBio, MCAMhFc)
Source text: as §1, §2

[4] = target: T4, human MCAM domain 3 hFc construct; experiment: ForteBio Octet Red, MCAMhFc domains on anti-human IgG Fc sensors, antibody at 5 ug/ml
Source text: as §1, §2

[5] = target: T5, human MCAM domain 2 hFc construct; experiment: ForteBio Octet Red, MCAMhFc domains on anti-human IgG Fc sensors
Source text: as §1, §2

[6] = target: T6, human MCAM domains 1 and 2 hFc construct; experiment: as above
Source text: as §1, §2

[7] = target: T1, human MCAM expressed on CHO cells (full …); experiment: laminin/FACS assay: blocking of recombinant laminin 411 binding to hMCAM expressing CHO cells, relative to rodent 2120, Expt#1
Experimental: (§3) Following incubation for 30-45 minutes, the cells were washed and anti-laminin conjugated to AF650 (NovusBio) was added to detect the bound laminin. The cells were run on a flow cytometer to measure the laminin binding signal.

[8] = target: T7, recombinant hMCAM-His; experiment: ForteBio Octet Red, antibody on anti-human Fc sensors, hMCAMHis analyte, 1:1 fit; affinity relative to rodent 2120, first Forte column
Experimental: The affinities were measured using the ForteBio Octet Red. Anti-human Fc sensors were used to capture the humanized antibodies, and several concentrations of hMCAMHis analyte were used to determine the affinity using a 1:1 fitting model.

[9] = target: T1, human MCAM expressed on CHO cells (full …); experiment: laminin/FACS assay: blocking of recombinant laminin 411 binding to hMCAM expressing CHO cells, relative to rodent 2120, Expt#2
Experimental: as §3

[10] = target: T7, recombinant hMCAM-His; experiment: competitive ELISA on coated hMCAM-His, competitor biotinylated rodent or chimeric 2120; IC50 relative to rodent 2120
Experimental: The apparent affinities of the humanized antibodies were compared to the parental rodent or chimeric antibody in a competitive ELISA according to the following protocol: ELISA plates were coated with recombinant hMCAM-His, and blocked with casein buffer to prevent non-specific binding. Biotinylated rodent or chimeric antibody was added at a subsaturating concentration, in the presence or absence of 3× increasing concentrations of unlabeled competitor (humanized antibody, rodent, or chimeric). After washing to remove unbound antibody, streptavidin HRP was added to allow detection of the biotinylated antibody. The ELISA was developed with TMB substrate and the OD450 was measured. The IC50 of the unlabeled competitor was determined using the GraphPad Prism5 software.

Row | Binder | IC50 [1] [µg/mL] | binding result [2] | binding result [3] | binding result [4] | binding result [5] | binding result [6] | Fold over rodent (Blocking) [7] [fold] | Fold over rodent (Forte) [8] [fold] | Fold over rodent (Blocking) [9] [fold] | Fold over rodent (ELISA) [10] [fold]
1 | B1 | 0.29 | no binding (tested: 5 ug/ml) |  |  |  |  |  |  |  | 
2 | B2 | 0.469 | no binding (tested: 5 ug/ml) | binds | binds | no binding (tested: 5 ug/ml) | no binding (tested: 5 ug/ml) |  |  |  | 
3 | B3 |  |  |  |  |  |  | 2 | 8.8 | 3.5 | 3.1
4 | B4 |  |  |  |  |  |  | 3.8 | 17.4 | 5.6 | 5
5 | B5 |  |  |  |  |  |  | 4.6 | 10.8 | 12.6 | 3.1

Reference: patent publication US20170101470A1 (PROTHENA BIOSCIENCES, published 2017)
